Source: the supplement of paper PMC6757056
± gives the standard deviation of the averaged measurements.

B1: library; a variant is named by its letters at N, in order (parent)
chain: GCUGUCACCGGUGUAUUACCCUAGUGGUCGACCGGUCUGAUGAGUCUNNNNNNAGACGAAACAGC

Assays:
[1] = variants of: B1; experiment: normalized RNA/DNA level with ligand (relative to sTRSVctl = 100) (log10 (% of sTRSVctl)); ligand: hypoxanthine (xanthine aptamer); higher = less ribozyme self-cleavage, higher mRNA level; settings: ligand concentration (+) RNA-Seq: 5 mM, HEK293T, reporter: mCherry (pCS4076), ligand present: yes
Summary of the method: (§1)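 Ribozyme switch library plasmids with mCherry reporters (eGFP in certain ligand experiments) went into HEK293T cells at 4 µg per 6-well well. Where ligand was used, it was applied 1 h before transfection, and total RNA was extracted with EDTA 72 h later for reverse transcription, amplification, barcoding and sequencing. RNA level is the RNA-to-DNA read ratio normalized to a spiked-in non-cleaving sequence or to the leading sequences, then scaled and log-transformed. Scaling was ×100 with log10, the leading set comprised 25 sequences, and the cutoff was ≥100 DNA reads.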

[2] = variants of: B1; experiment: normalized RNA/DNA level without ligand (relative to sTRSVctl = 100) (log10 (% of sTRSVctl)); ligand: hypoxanthine (xanthine aptamer); higher = less ribozyme self-cleavage, higher mRNA level; settings: HEK293T, reporter: mCherry (pCS4076), ligand present: no
Summary of the method: as §1

Variant	normalized RNA/DNA level with ligand (log10) [1]	normalized RNA/DNA level without ligand (log10) [2]
AUUCAA	1.91 ± 0.047	1.82 ± 0.038
CUUCAA	1.959 ± 0.013	1.82 ± 0.05
UUUCAA	1.9299 ± 0.00082	1.866 ± 0.015
AUUCAC	1.953 ± 0.019	1.891 ± 0.0042
GUUCAC	1.96 ± 0.05	1.85 ± 0.023
UUUCAC	1.9884 ± 0.0013	1.91 ± 0.031
AUUCAG	1.87 ± 0.053	1.58 ± 0.025
CUUCAG	1.92 ± 0.08	1.84 ± 0.07
GUUCAG	1.82 ± 0.054	1.55 ± 0.057
UUUCAG	1.9 ± 0.021	1.71 ± 0.042
CUUCAU	1.921 ± 0.0074	1.88 ± 0.067
GUUCAU	1.908 ± 0.016	1.783 ± 0.012
UUUCAU	1.915 ± 0.013	1.838 ± 0.0065
AUUCCA	1.92 ± 0.02	1.86 ± 0.042
CUUCCA	1.93 ± 0.043	1.91 ± 0.091
GUUCCA	1.963 ± 0.017	1.9 ± 0.029
UUUCCA	1.95 ± 0.037	1.894 ± 0.0032
AUUCCC	1.9 ± 0.031	1.87 ± 0.03
GUUCCC	1.99 ± 0.021	1.92 ± 0.044
UUUCCC	1.99 ± 0.024	1.96 ± 0.039
GUUCCG	1.94 ± 0.028	1.72 ± 0.048
UUUCCG	1.99 ± 0.063	1.83 ± 0.07
CUUCCU	1.98 ± 0.038	1.96 ± 0.032
GUUCCU	1.99 ± 0.012	1.98 ± 0.056

Variant	normalized RNA/DNA level with ligand (log10) [1]	normalized RNA/DNA level without ligand (log10) [2]
UUUCCU	2.05 ± 0.069	1.9175 ± 0.00088
AUUCGA	1.91 ± 0.042	1.738 ± 0.015
GUUCGA	1.95 ± 0.043	1.76 ± 0.023
UUUCGA	1.953 ± 0.013	1.915 ± 0.006
AUUCGC	1.96 ± 0.04	1.89 ± 0.023
CUUCGC	1.954 ± 0.0084	1.88 ± 0.034
GUUCGC	1.97 ± 0.025	1.96 ± 0.048
UUUCGC	1.95 ± 0.023	1.92 ± 0.047
GUUCGG	1.908 ± 0.019	1.604 ± 0.0043
UUUCGG	1.964 ± 0.012	1.94 ± 0.072
AUUCGU	1.93 ± 0.0044	1.897 ± 0.018
CUUCGU	2.028 ± 0.012	1.9 ± 0.045
UUUCGU	1.96 ± 0.0091	1.851 ± 0.0071
AUUCUA	1.92 ± 0.041	1.84 ± 0.062
CUUCUA	1.97 ± 0.051	1.85 ± 0.077
GUUCUA	1.949 ± 0.011	1.89 ± 0.039
UUUCUA	1.91 ± 0.02	1.87 ± 0.048
CUUCUC	2.041 ± 0.013	2.03 ± 0.059
GUUCUC	1.981 ± 0.0077	1.95 ± 0.02
UUUCUC	1.99 ± 0.064	1.963 ± 0.0086
AUUCUG	1.85 ± 0.061	1.61 ± 0.039
CUUCUG	1.948 ± 0.013	1.91 ± 0.053
GUUCUG	1.89 ± 0.058	1.54 ± 0.03
UUUCUG	1.942 ± 0.009	1.77 ± 0.026

Variant	normalized RNA/DNA level with ligand (log10) [1]	normalized RNA/DNA level without ligand (log10) [2]
AUUCUU	1.94 ± 0.055	1.93 ± 0.023
CUUCUU	2.01 ± 0.066	1.868 ± 0.0019
GUUCUU	1.95 ± 0.051	1.92 ± 0.034
UUUCUU	1.94 ± 0.036	1.95 ± 0.036
AUUGAA	1.91 ± 0.047	1.75 ± 0.026
GUUGAA	1.918 ± 0.016	1.744 ± 0.0083
CUUGAC	1.923 ± 0.019	1.812 ± 0.0094
GUUGAC	1.917 ± 0.015	1.72 ± 0.057
UUUGAC	1.927 ± 0.0075	1.84 ± 0.037
CUUGAG	1.87 ± 0.03	1.72 ± 0.068
UUUGAU	1.9 ± 0.052	1.7965 ± 0.0012
AUUGCA	1.9 ± 0.0078	1.8 ± 0.026
UUUGCA	1.94 ± 0.039	1.89 ± 0.033
AUUGCC	1.95 ± 0.021	1.85 ± 0.021
CUUGCC	1.9562 ± 0.0012	1.884 ± 0.015
GUUGCC	1.9665 ± 0.0019	1.9 ± 0.033
UUUGCC	1.92 ± 0.034	1.9514 ± 0.00098
CUUGCG	1.937 ± 0.0067	1.853 ± 0.004
GUUGCG	1.87 ± 0.041	1.58 ± 0.072
UUUGCG	1.91 ± 0.11	1.778 ± 0.0053
AUUGCU	1.92 ± 0.048	1.88 ± 0.048
GUUGCU	1.97 ± 0.069	1.862 ± 0.0076
UUUGCU	1.95 ± 0.023	1.95 ± 0.022
GUUGGA	1.913 ± 0.0093	1.67 ± 0.042

Variant	normalized RNA/DNA level with ligand (log10) [1]	normalized RNA/DNA level without ligand (log10) [2]
UUUGGA	1.93 ± 0.027	1.67 ± 0.026
AUUGGC	1.94 ± 0.03	1.836 ± 0.0094
CUUGGC	1.95 ± 0.069	1.9 ± 0.089
GUUGGC	1.9 ± 0.029	1.51 ± 0.025
UUUGGC	1.99 ± 0.059	1.92 ± 0.053
CUUGGG	1.866 ± 0.013	1.587 ± 0.013
UUUGGG	1.92 ± 0.025	1.71 ± 0.035
CUUGGU	1.98 ± 0.051	1.95 ± 0.04
GUUGGU	1.9283 ± 0.00055	1.78 ± 0.021
UUUGGU	1.976 ± 0.0094	1.8 ± 0.027
AUUGUA	1.89 ± 0.021	1.78 ± 0.022
CUUGUA	1.94 ± 0.062	1.83 ± 0.045
UUUGUA	1.93 ± 0.024	1.87 ± 0.089
AUUGUC	1.952 ± 0.016	1.969 ± 0.015
CUUGUC	2 ± 0.037	1.98 ± 0.04
GUUGUC	1.943 ± 0.0065	1.9 ± 0.052
UUUGUC	2.0103 ± 0.0014	1.99 ± 0.036
CUUGUG	1.96 ± 0.056	1.883 ± 0.015
AUUGUU	1.9265 ± 0.0005	1.8319 ± 0.00072
CUUGUU	1.909 ± 0.0024	1.9 ± 0.022
UUUGUU	1.952 ± 0.018	1.87 ± 0.027
CUUUAA	1.92 ± 0.049	1.78 ± 0.054
UUUUAA	1.931 ± 0.0049	1.85 ± 0.056
AUUUAC	1.927 ± 0.011	1.847 ± 0.0068

Variant	normalized RNA/DNA level with ligand (log10) [1]	normalized RNA/DNA level without ligand (log10) [2]
CUUUAC	1.92 ± 0.073	1.81 ± 0.052
GUUUAC	1.96 ± 0.04	1.88 ± 0.028
UUUUAC	1.93 ± 0.031	1.83 ± 0.031
AUUUAG	1.85 ± 0.033	1.55 ± 0.053
UUUUAG	1.9 ± 0.03	1.76 ± 0.055
AUUUAU	1.9 ± 0.039	1.907 ± 0.019
GUUUAU	1.96 ± 0.05	1.83 ± 0.042
AUUUCA	1.87 ± 0.04	1.829 ± 0.017
GUUUCA	1.98 ± 0.024	1.9949 ± 0.0014
UUUUCA	1.94 ± 0.056	1.901 ± 0.012
AUUUCC	1.9621 ± 0.0014	1.878 ± 0.0067
CUUUCC	1.91 ± 0.05	1.96 ± 0.039
AUUUCG	1.901 ± 0.0068	1.568 ± 0.015
CUUUCG	1.97 ± 0.064	1.903 ± 0.014
GUUUCG	1.9698 ± 0.0015	2.01 ± 0.098
UUUUCG	1.923 ± 0.0085	1.79 ± 0.053
AUUUCU	1.96 ± 0.052	1.917 ± 0.018
CUUUCU	1.93 ± 0.048	1.88 ± 0.038
GUUUCU	2 ± 0.063	2.02 ± 0.027
UUUUCU	1.99 ± 0.052	1.9 ± 0.02
